# According to patent US20140323404A1 (GUANGDONG MEDICAL COLLEGE, published 2014):
# Target: Human coagulation factor XIa (human, UniProt P03951 19-625)
# Experiment: cell-based or functional assay
row,Binder,"inhibition of fXIa activity, chromogenic assay, polypeptide at 100 nM [%]"
1,NAPTin-7 (peptide) NPSCGENERHDECSRKECDPKCKYDGTEEKDDEKPVVCLTRVCYGDCICRDGFLRNKNGACVKAEDC,> 90
2,NAPTin-8 (peptide) NPSCGENERHDECSRKECDPKCKYDGTEEKDDEKPVVCLTRVCYGDCICRDGFLRNKNGACVKAEDCELDNMEF,> 90
3,NAPTin-5 (peptide) NPSCGENERHDECSRKECDPKCKYDGTEEKDDEKPVVCLTRVCYGDCICRDGFLRNKNGACVKAEDCEL,> 90
4,NAPTin-4 (peptide) NPSCGENERHDECSRKECDPKCKYDGTEEKDDEKPVVCLTRVCYGDCICRDGFLRNKNGACVKAEDCELDNME,> 90
5,NAPTin-2 (peptide) NPSCGENERHDECSRKECDPKCKYDGTEEKDDEKPVVCLTRVCYGDCICRDGFLRNKNGACVKAEDCELDN,> 90
6,NAPTin-6 (peptide) NPSCGENERHDECSRKECDPKCKYDGTEEKDDEKPVVCLTRVCYGDCICRDGFLRNKNGACVKAEDCE,> 90
7,NAPTin-3 (peptide) NPSCGENERHDECSRKECDPKCKYDGTEEKDDEKPVVCLTRVCYGDCICRDGFLRNKNGACVKAEDCELDNM,> 90
8,NAPTin-9 (peptide) NPSCGENERHDECSRKECDPKCKYDGTEEKDDEKPVVCLTRVCYGDCICRDGFLRNKNGACVKAEDCELDNMEFI,> 90
